Assays:
[1] = molecular target: G115 Vγ9Vδ2+ TCR wild-type expressed on transfected cells; assay: flow cytometry, tetramer-PE against CD3-APC on HEK293T cells co-transfected with CD3 and G115 WT TCR; SAv control 27
[2] = molecular target: G115 Vγ9Vδ2+ TCR Glu52δ-Ala expressed on transfected HEK293T cells; assay: flow cytometry, tetramer-PE against CD3-APC on HEK293T cells co-transfected with CD3 and G115 Glu52δ-Ala TCR; SAv control 32
[3] = molecular target: G115 Vγ9Vδ2+ TCR His85γ-Ala expressed on transfected HEK293T cells; assay: flow cytometry, tetramer-PE against CD3-APC on HEK293T cells co-transfected with CD3 and G115 His85γ-Ala TCR; SAv control 27
[4] = molecular target: G115 Vγ9Vδ2+ TCR Lys53δ-Ala expressed on transfected HEK293T cells; assay: flow cytometry, tetramer-PE against CD3-APC on HEK293T cells co-transfected with CD3 and G115 Lys53δ-Ala TCR; SAv control 27
[5] = molecular target: full-length human BTN3A1 on transfected cells (human) (UniProt O00481); assay: flow cytometry, control tetramer-PE on BTN3A1-transfected NIH-3T3 cells treated with isotype IgG1κ (black number); SAv control 25
[6] = molecular target: full-length human BTN3A1 on transfected cells (human) (UniProt O00481); assay: flow cytometry, γδTCR tetramer-PE on BTN3A1-transfected NIH-3T3 cells treated with isotype IgG1κ (black number); SAv control 26
[7] = molecular target: full-length human BTN3A1 on transfected cells pre-treated (cross-linked) with anti-BTN3A mAb clone 20.1 (human); assay: flow cytometry, FRET (YG 670/30) between TCR tetramer-PE and anti-BTN3A 20.1-AF647 on BTN3A1+ NIH-3T3 cells; with IgG1κ-AF647 the gate holds 0, with SAv 0

Sequence of mCD1d tet. ctl (P11609 22-305): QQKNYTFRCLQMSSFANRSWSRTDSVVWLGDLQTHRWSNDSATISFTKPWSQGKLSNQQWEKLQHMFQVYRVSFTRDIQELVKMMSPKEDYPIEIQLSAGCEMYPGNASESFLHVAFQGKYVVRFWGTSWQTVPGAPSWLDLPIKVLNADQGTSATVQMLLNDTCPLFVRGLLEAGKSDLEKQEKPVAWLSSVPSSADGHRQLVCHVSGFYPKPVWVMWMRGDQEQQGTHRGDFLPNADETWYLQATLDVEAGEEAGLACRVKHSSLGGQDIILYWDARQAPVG
Sequence of soluble G115 Vγ9Vδ2+ TCR wild-type (TCR delta): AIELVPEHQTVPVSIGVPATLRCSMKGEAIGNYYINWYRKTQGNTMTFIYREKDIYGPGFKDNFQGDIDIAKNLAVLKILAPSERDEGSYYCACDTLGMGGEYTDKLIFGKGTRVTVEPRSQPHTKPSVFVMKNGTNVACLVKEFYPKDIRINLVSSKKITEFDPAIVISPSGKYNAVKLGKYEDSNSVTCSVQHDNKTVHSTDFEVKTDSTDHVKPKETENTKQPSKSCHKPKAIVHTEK
Sequence of soluble G115 Vγ9Vδ2+ TCR wild-type (TCR gamma): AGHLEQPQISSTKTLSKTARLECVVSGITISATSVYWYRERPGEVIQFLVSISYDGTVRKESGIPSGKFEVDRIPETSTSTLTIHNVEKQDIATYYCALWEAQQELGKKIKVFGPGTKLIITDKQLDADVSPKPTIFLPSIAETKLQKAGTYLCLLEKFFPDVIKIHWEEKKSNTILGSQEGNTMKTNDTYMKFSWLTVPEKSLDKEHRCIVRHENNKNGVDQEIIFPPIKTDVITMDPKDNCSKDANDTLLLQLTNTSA

mCD1d tet. ctl
MFI of PE [1]: 20 | MFI of PE [2]: 26 | MFI of PE [3]: 22 | MFI of PE [4]: 23 | MFI of PE (GFP+ gate) [5]: 32

BTN2A1-BTN3A1-zipper ectodomain complex (construct #1, long linker version with high affinity zippers) (ligand)
MFI of PE [1]: 102 | MFI of PE [2]: 72 | MFI of PE [3]: 63 | MFI of PE [4]: 753

soluble BTN2A1 ectodomain lacking Cys247 (monomeric) (from UniProt Q7KYR7 29-246) (ligand)
MFI of PE [1]: 282 | MFI of PE [2]: 469 | MFI of PE [3]: 28 | MFI of PE [4]: 507

chimeric γδTCR tetramer: G115 pAg-reactive Vγ9+ γ-chain with 9C2 Vδ1+ δ-chain
MFI of PE (GFP+ gate) [6]: 24

soluble G115 Vγ9Vδ2+ TCR wild-type
MFI of PE (GFP+ gate) [6]: 35 | % cells in the FRET gate [7]: 19%

From patent US20250179144A1
